Test: label from the status in PepcDB records

| Sequence | protein production |
| --- | --- |
| MKFSKFGQKFTQPTGISQLMDDLGDALKSDQPVNMLGGGNPAKIDAVNELFLETYKALGNDNDTGKANSSAIISMANYSNPQGDSAFIDALVGFFNRHYDWNLTSENIALTNGSQNAFFYLFNLFGGAFVNEHSQDKESKSVDKSILLPLTPEYIGYSDVHVEGQHFAAVLPHIDEVTHDGEEGFFKYRVDFEALENLPALKEGRIGAICCSRPTNPTGNVLTDEEMAHLAEIAKRYDIPLIIDNAYGMPFPNIIYSDAHLNWDNNTILCFSLSKIGLPGMRTGIIVADAKVIEAVSAMNAVVNLAPTRFGAAIATPLVANDRIKQLSDNEIKPFYQKQATLAVKLLKQALGDYPLMIHKPEGAIFLWLWFKDLPISTLDLYERLKAKGTLIVPSEYFFPGVDVSDYQHAHECIRMSIAADEQTLIDGIKVIGEVVRELYDNK | not failed |
| MKFVQERRLTVKTTFSKEYKIFIFGLLISRIGDSLYTFALPWIAYQLTGSAVIMGSLFAVNVLPIVLFGPLVGVLVDRYDRKKLLWMADIINIILVSLVPILHALHLLEVWHLYVITFILAVMSMLFDVTTVTVIPHIAGASLTKANSLYQMVNQLASLFGPIIAGLFISFIGGFQVLWINVLSFIATLIAVIILPSMKNLNKKNTDKKTLQNVLNDLFDGFKWLINDRLNIALSLQAMVGNFGASAVLGVLMYYLLSTLNLTSAQSGYNYTLIGIGGLLGSLIAVPLEKKFRRGILIPLLLFFGALGLTFALWSTYWLAPGIAFGIAMTCNITWNTIVTSIRQETVPSNLQGRVLGFSRVLTRLSMPLGALVGGIISAYNPVFIFALAAFTKIIEVFIALCSPIRKL | failed |
| MKFYTILSILFISFMLSACAVLQKSSPLQENKDFYILDTHTQKKISFEDMILELLKADVILLGEKHDEVKHKISQVMIFNALEGNLSSQNINFDVALEMLASTEQNHLDKAFKNKKTIKANELTNALNWDKVWKWKDYEQFVNVVFYSKSKILGANLSRSEITSIYNGAQPLKGYVSTTNEVKKQLFDIISLSHKLNPEENKELLDKLVEIQQFKDRRMADVLVHHVNKVLLLAGSYHTSKKIGIPLHIQDFKSSKKIVVVNLSYGEIDLKDSDYVLIYKGEELEHHHHHH | failed |
| MKGENMMVKLIALYEQPEDKQAFDEHYFNTHAPLTRKIPGLRDMKVTRIVGSPMGESKFYLMCEMYYDDHESLQQAMRTDEGKASGKDAMKFAGKLLTLMIGEEMDE | not failed |
| MKGFIDDANYSVGLLDEGTNLGNVIDNYVYEHTLTGKNAFFVGDLGKIVKKHSQWQTVVAQIKPFYTVKCNSTPAVLEILAALGTGFACSSKNEMALVQELGVSPENIIFTSPCKQVSQIKYAAKVGVNIMTCDNEIELKKIARNHPNAKVLLHIATEDNIGGEDGNMKFGTTLKNCRHLLECAKELDVQIIGVKFHVSSACKEYQVYVHALSDARCVFDMAGEFGFTMNMLDIGGGFTGTEIQLEEVNHVISPLLDIYFPEGSGIQIISEPGSYYVSSAFTLAVNIIAKKVVENDKFSSGVEKNGSDEPAFVYYMNDGVYGSFASKLSEDLNTIPEVHKKYKEDEPLFTSSLWGPSCDELDQIVESCLLPELNVGDWLIFDNMGADSFHEPSAFNDFQRPAIYFMMSFSDWYEMQDAGITSDAMMKNFFFAPSCIQLSQEDSFSTEA | not failed |
| MKGFNIYTDESTLVSIGDDAGVYEHNGIIWVYTVDIITPVVNDPYLWGAISTANALSDVYAMGGIPVNALAISCFNNCELDIEIFREVIRGALDKLREAKTVLLGGHTIDDKEPKFGLSVAGICPEGKYITQSGAQVGQLLILTKPIGTGILIKGLKEGILKEEDINEAIENMLALNDKARNLMLSLDATACTDVTGFGLLGHAWNICKNSNIGARIFFEKVPYYQLSENLVKKKIYPKGAIENLNFVKNYLKSNLDNWKLILLSDPVTSGGLLFTINKEKLEKIDETAKELEVNYWIIGETIAENVLEVL | not failed |
| MKGHIRERSPGHWAIVLDVGEVDPKTGKKKRKWHSFTGTKREAQKECSRLITVLDQGLYVEPTKQTVAEFLNEWLAFVKPSVAPKTHERYTEICRKGLSPLIGNVILSKLKTDRIDAAFTTALTAPRVDHRTKKDQREPLPPLAPRTVHHYRRVLVKALGQAVTWERLSRNPATATTPPKVERQKMLAYDVGQTATLLETLRPTRMFVPVLLAVTCGLRRGEILALRWRHLELGDNRRQMSIEESAEQTADGVRYKEPKSGRARTVALSASTVAELKAHRARQAEEQLRLGIRPDADSFVVAQVDGQPLQPRSLTHEWVRVLGKTSLPRIRFHDLRHTHATQMLSAGVHPKIASERLGHSNIGITLDLYSHVMPGMQADAAEQVDVALQAAISSERKGK | failed |
| MKGIMVQGTASDVGKSLICTALCRIFARRGYKVTPFKSQNMSNNSYITVEGLEIGRAQGIQAEAAMEEASVYMNPILLKPRNDREAEIVCFGQAVDTVSGVKYRDGFYKRGLEAIKQALATLSQSFDMVVIEGAGSPVEVNLNDRELVNMKVAELADVPVILVADIERGGVFASLYGTLELLQPNERKRVVGIIVNKFRGDPELFSSGVQWIEQHLGVPVLGVLPHLPGVRIEGEDSLSKGQVTSVLPRDQSIDIAVLDLPYLSNYTDLEPFRYEEDVAIRFVSSVDALGRPDAIILPGTKSTFHDLQILKEKGFKERLHEYVTTDGTVVAICGGFQMLGHRLIDVAGSDTGIKGATIDGLDLAPVETRFAEKKKTVRSLGQLLHPFGTAKDIYGFEIHLGETDIVDPSIPAFLRVGNHTDGVYLHEGRLIGTYFHHLFFNDDFRSGWLNTLRRKKGLRERPTVELEKCRRASYDQLADEVERVLHVDSLLEKMERWGETSLEHHHHHH | not failed |
| MKGITSLGSKWFVEFEKNNVHNVYDRIAEHFTKTRYRIWPGVELFLKQTSPLDTVLDVGCGNGKNLISYRNLFCIGIDRCVPLVKTCKQRQLETAVADILELPFQSEKFDIVLCIAVLHHLCTRERRILAIQELGRVLRPGGSCLLYVWAANENDGKDEVKNTKAREKMRFLDENKQEALIPWVVIDHEKKATQLEKNLKQPSTFTLERYYHLYRQGELEEECLQSNCFHIQHSYYEQSNWCVVLDKKS | not failed |
| MKGKILDYSIQTSTGIIRAENQQRYSFSGSAWKEQQAPMRGMHVDFEIDAQDQVIDIFIDASDLEPAIQPSPTAVISDTVSKETHADNLSTSSDPLSSASLSHTHSQYSSSTDDQHQNLLANESKYSMMDWVMKCLRNYINFTGRARRKEYWFFQLWYAILSFVMLVLGDAFHWGDNLFLIATLLVALPAIAVSAHRLHDINRSGWLVLLNLVTIVGVLIVTFFFMIKEGDQTTNSYGPASK | failed |
| MKGKVVSYLAAKKYGFIQGDDGESYFLHFSELLDKKDEGKLVKGSMVHFDPTPTPKGLAAKAISLPLEHHHHHH | not failed |
| MKGLCSSDTRQYLPGHQLWEAPVQIRRYSAVIHHATKCQWGVIPSRTINVSLHQTRRMRVAAVGIGGAGGRIVERLWQDNERRETTYLGAACAVDTDTEALDELDALPADRRYAFGLSETNGTGTNGDRTSGTAAIEDERLEVRRAIDELVTSDIDAVVLVAGLAGGTGSGATAHIADALREVYSIPVYCLSVLPAGRDDDAAANTMQALRALESTVDGQILFDNEAWLGSGQTVESASETLNETIVARLGALFAAGEATAPDAVGQSVVDASEIINTLSDAGFTTLGYASQDLQTGAGSGDGTVIDQLKNRFLGDNADDVDEIEAYNAVETTLRRAVRGKLTAQCELDSADRALAVFAGPPAWLIRDAVTDGRRWLTEELQSPLEHHHHHH | failed |
| MKGNFHSTYDQGFARVAACTTTVHIGDPASNVAGILDTCRELSSRSVAIAVFPELCLTGYAIDDLLLQDVVLDAVLDAIETVRQASRSLFPVIIVGAPLQRGNRLYNCAVVIHRGQVLGVVPKSHLPNYREFYEKRHFAVGAGTTGMIDLSGRQKSHAASTEIPFGPDQLFRATDLPDLTFHVEVCEDLWVPVAPSSQAALAGAVVEVNLSGSPITVGKSRQRHELCKVTSSRNLQAYVYAAAGPGESSTDLSWDGQTMIYENGSLLAATDRFSPEPGYCLADIDLDLLRQERLRQGSFDDNALAQPAQAPWRTTIFTLDPPHDDIGLERPVNRFPFVPNDPDQLAQDCYEAYNIQVYGLRRRLESMGSPKIVIGVSGGLDSTHALLVAAKAMDQMGRPRTDILAFTMPGFATTDHTKNNALDMCRALGIPCEVLDIRPAATQMLKGMSHPAGDGAEVYDVTFENVQAGLRYDYLFRIANQRGGIVLGTGDLSELALGWCTFGVGDQMSHYGVNTGVPKTLIQHLIRWCISSGQFNEATNVVLESVLGTEISPELVPARPGEKIQSTQAKIGPYELQDFTLYHLLRHGMRPSRIIFLSHHAWRDASVGSWPPGFRDEDRHSYDLSAIKDWTRLFLRRFVGNQFKRSTLPNGPKVVAGGSLSPRGDWRMPSDAVVRAWLDDLETVPDERF | failed |
| MKGTKKLAWLGLLLVLPVLAQATTVTYSALTVRELGNFLMNLPTGFYAIAPAAAKNMMDTVDVFILDVREPNEFAGERIQGAVNIPIRDLPKRVGELPKGKPIIVYCKVGHRGSMAMMFLRGQGYNVQSISGGLDGWKNAGLPVVK | failed |
| MKGTNTIYIIISSILLAYIMQIFVLYPFTAVAIGIPLGLLSRKYSAIGGFLIGFLSSLSLYLIYPINAVSKIAEIIGQLIGINPFLVVLLYPLIYGTISLISALLFYYIVRLNK | failed |
| MKHCLKFALLAGFALLLTACGFHLRGLGGSLKPLPFSTMYLEATGKSIEADLRTVFARDPKLSVMSEPKGAQAVVSVVSENQSKDILTINTGGRINEYQLTYTVVVRTVIGGVPVDPDMVVTVRRSLNYSDNQVLGKQQEEDLLWADARRDAAEQIVRRLAYLKVPAAPLAGPVSVKPDAVPQPLEHHHHHH | not failed |
| MKHIHSYYSPNNLYNKIIEGLNNLGKDLSSVTPDDLQPVDEFHIRGDIATKELIELGNFTPDMHILDVGCGVGGSTRRLSHETGCHVTGIDLSDEYIDAAERLTQLLNMQARVKFNVGSALELPYADNTFDGAWSIQMNMNVEDKLGWLKEMYRVLKPGARAVLYEVCGHEEKTIYFPVPWAQDSSMSFLIPKEAFRDLIASTGFKIEVWNDKSDLAQKAFARMREPTGESTLPELGLHMLIGNDIKTKAYNMRRNLDDERISLIEILAIKPS | failed |
| MKHLPTTLLLSTLAITLSAQAHNLVPAPKQTQSVLIKNATVHTVIQGVLTNTDVLIENGKISALGPQLSTNTTASTQVVDASGKHLYPGLIALDTSLGLVEIEMVRPTVDNAEVGDVNPQISAASAYNPDSELLPTIRYNGITHAQIVPSGDGLAGQSVVVDLDAWTIEDALQPNEGQFHVYWPQIKRMPEDEKEKAKAIEKNQQAIDKLITAFEDGYRYFLSQNAQDTDNWPNLRWQAMLPLYQGKATLFAHADSVSQIEQVIALTKKYQFKLVIVGGYDAWRLASSLREVNASVIYPHTLSLPKRKDEPVDLPFKIPSLLANAGIPYALGFSSDWNSRNLPYAAGYSAAYGVTPEQALKSVTLDAAKLLGIADLGAIAVGYQGSVVLSDGDILDPMSSKIDAIWIEGRQIDLNNRHQQLYQKYLKR | failed |
